Assay results as given in the nanobody polyreactivity screen of Harvey et al. (2022).

Assay: yeast display, Sf9 membrane polyspecificity reagent, FACS + sequencing; frameworks hold sequencing errors
How it was run: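 Sorting gates, low and high (top ~1%), were placed on anti-HA fluorescence to track expression and on streptavidin fluorescence to track reagent binding. A clone's polyreactivity label is taken from the gate it came out of. The reagent was 10% biotinylated, detergent-solubilized Sf9 membrane, applied for 1 hour at 4 °C to galactose-induced yeast display cells.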

Sequence | polyreactivity (PSR sort gate)
QFQLVESGGGLVQAGGSLRLSCAASGITFRAYAMGWYRQAPGKERELVAAITGRFGRTYYADSVKGRFTISRDNENNSVYLQMNSLKPEDTAVYYCNAYLWRVTQTYDYWGQGTQVTVSS | high polyreactivity
QVQHVESGGGLVQAGGSLRLSCAASGSNSAYAMGWYRQAPGKERELVAAINSGGSTTYADSVKGRFTISRDNAKNTVYLQMNSLKPEDTAVYSCAARAPSFRYGTSNYPAYRLDYWGQGTQVTVSS | high polyreactivity
QVQLVESGGGLVQAGGSLRLSCAASGSIFYGNTMGWYRQAPGKERELVAAIDYRGDSTYYADSVKGRFTISRDNAKNTVYLQMNSLKPVDTAVYYCAADQTPVGQVYYGTLSIRDYWGQGTQVSVSS | low polyreactivity
QVQLVESGGGLVQAGGSLRLSCAASGSSFSSYAMGRYRQAPAKERELVASNNIGGSTNYADSVKGRFTISRDNAKITVYLHMNSLKPEDTAVYSCNAVGYNVGGEGDYWGQGTQVTVSS | high polyreactivity
QVQLVESGGGLVQAGGSLRLICAASGFTFWDYTMGWYIQAPGKERELVAAITRSGGRTYYADSVKGRFTISRDNENNTFYLQMNSLKTEDTAVYYCAAKIWSKDEKHDYWGQGTQVTVSS | high polyreactivity
QVQLVESGGGLVQAGGSLRLSCAASGRTFGRNAMGWYRQAPGERELVAVISRRGSTYYADSVKGRFTISRDNAKNTVYLQMNSLKPEETAVDYCAAYYYIGGKYGSQVYEYDYWGQGTQVTVSS | low polyreactivity
QVQLVESGGGLVQAGGSLRLSCAASGSIFYLYAMGWYRQAPGKERELVATISLSSGSTYADSVKGRFTISRDNAKNTVYLQMNSLKPDDTAVYYCAKDLSRWGYNEYDYWGQGTQVTLSS | low polyreactivity
QVQLVESGGGLVQAGGSLRLICAASGITFDGYAMGWYRQAPGKERELVAAISWSGGRTYYADSVKGRFTISRDNAKNTVYLQMNSLKPEDTAVYYCAVYRRGVVYLLTSGVDYWGQGTQVTVSS | high polyreactivity
QVQLVESGGGLVQAGGSLRLSCAATGLIIYRNAMGWYRQAPGKEREFVAAISYSGGSTSYADSVKGRLTISRDNAKNTVYLQMNSLKPEDTAVYYCAVDQSRGWFYLYYYWGQGTQVTVSS | low polyreactivity
QVQLVESGGGLVQAGGSLRLSCAASGRTFGKYAMGWYTQAPGKEREFVAAISWSGATTRYADSVKGRFTISRDNAKNTVYLQMNSLKPEDTAVYYCAATYYYVYGYRGDYWGQGTQVTVSS | high polyreactivity
QVKLVESGGGLVQAGGSLRLTCAASGSNFDINAMGWYRQAPGKERELVAAISWSGGDTYADSVKGRFTISRDNAKITVYLQMNCLKPEDTAVYYCDTGDPHEEQYYYDYCGQGTQVTVSS | low polyreactivity
QVQLVESRGGLVQAGGRLRLSCAASGSIFDWYAMGWYRQAPGKERELVADITWSGDSTYYADSVKGRFTISRDNAKNTVYLQMNSLKPEDTAVYYCAADIWFNTYYEYDYWGQGTQVTVSS | high polyreactivity
QVQLVESGGGLVQAGGSLRLSCADSGSTFGKNAMGWYRQAPGKDRELVAAITRRGVSTNYADSEKGRFTISRDNAKNTVYLQMNSLKPEDTAVYYCARGSELGYYAWVYYLGQGTQVTVSS | high polyreactivity
QVQLRESGGGLVQAGGSLRLSCAASGRIFGNYSMGRYRQAPGKEREMVAAISGGGSTYYADSVKGRFTISRDNAKNTVYLQMTSLKPEDTAVYYCADRFLWSVFCRKGGYWGQGTQVTVSS | low polyreactivity
QVQLVESGGGLVQAGGSLSLSCAASGSIFWRNAMGWYRPAPGKERELVAAITSGGSTYYADSVKGRFTISRDNAKNTVYLQMNSLKPEDTAVYYCAAGYSYRYDYWGQGTQVTVSS | low polyreactivity
QVQLVESGGGLVQAGGSLRLSCAASGRTFYTYAMGWYRQAPGKERELVAAITYSGGRTSYADSVKGRFTISRDNAKNTVYLQMNSLKPEDTAVYYCAARTLGRRLDYGYWGQGTQVSVSS | low polyreactivity
QVQLVESGGGLVQAGGSLRLSCAASGSILYVYAMGWYRQAPGKERELVATITGRVVSKNYADSVKGRLTLSRDNAKNSVYLQMNSLKPEDTAVYYCAARTRRRRGEYDYWGQGTQVTVSS | high polyreactivity
QVQLVESGGGLVQAGGSLRLSCAASGSTFIVNAMGWYRQAPGKERELVAAIRRGTRTNYADSVKGRFTISRDNAKNTVYLQMNSLKPEDTAVYYCAVRGSYRGWYDYWGQGTQVTVSS | high polyreactivity
QVQLVESGGGLVQAGGSLRLSCAASGNTFYPYAMGWYRQAPGKERELVAAITSSGGSTYYADSVKGRFTISRDNAKNTVYLQMNSLKPEDTAVYYCAADPDWYSPFKYCYWGQGTQVTVSS | low polyreactivity
QVQLVESGGGLVQAGGSLRLSCAASGRTFYIYTMGWYRQAPGKERELVATAITSGGITYYADSVKGRFTISRDNAKNTVYLQMNSLKPEDTAVYYCAADDYYGYYGFNYWGQGTQVTVSS | low polyreactivity
QVQLVESGGGLVQAGGSLRLSCAASGSIFYYYAMGWYRQAPGKERELVASISTDGSTYADSVKGRFTISRDNAKNTVYLQMNSLKPEDTAVYYCNADTRGEYTYVSWYDYWGQGTQVTVSS | low polyreactivity
QVQLVESGGGLFQAGGSLRLRCAASGFIFGVNAMGWYRQAPGKERELVAAITSTGGRTYYADSVKGRFTISRDNAKNTVYLQMNSLKPVDTAVYFCARYQTGGYGYWGQGTQVTVSS | high polyreactivity
